Laboratory results: patent EP4663654A1 (Hangzhou Sciwind Biosciences Co., Ltd., dated 2025)
Starred links: 1 amine or outer side, 2 acyl side, 3 side chain; linkers in the order of their positions; H or OH if unused. Non-standard residues stand in square brackets, D forms with d. *: point of attachment. C20 diacid = O=C(O)CCCCCCCCCCCCCCCCCCC(=O)*; γGlu = O=C(O)[C@H](CCC(=O)[*:2])N[*:1]; Hyp = O=C(O)[C@@H]1C[C@@H](O)CN1

T1: human amylin receptor (AMY3) on CHO-K1/Ga15/AMY3 amylin receptor/CRE-luc cells (human, UniProt P30988 25-474; O60896 24-148)
T1 sequence (looked up) 1: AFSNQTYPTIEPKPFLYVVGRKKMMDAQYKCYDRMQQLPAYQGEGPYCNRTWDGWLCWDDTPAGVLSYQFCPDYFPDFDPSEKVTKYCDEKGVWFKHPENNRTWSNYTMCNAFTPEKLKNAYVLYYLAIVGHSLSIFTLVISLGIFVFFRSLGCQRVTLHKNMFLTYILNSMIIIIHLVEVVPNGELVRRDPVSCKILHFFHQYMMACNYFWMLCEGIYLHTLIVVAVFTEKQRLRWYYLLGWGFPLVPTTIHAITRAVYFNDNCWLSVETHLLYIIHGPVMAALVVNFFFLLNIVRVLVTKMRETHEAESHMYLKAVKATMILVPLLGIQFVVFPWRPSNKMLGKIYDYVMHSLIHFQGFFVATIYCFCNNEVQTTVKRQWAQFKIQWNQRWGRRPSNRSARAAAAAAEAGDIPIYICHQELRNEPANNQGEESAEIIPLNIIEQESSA
T1 sequence (looked up) 2: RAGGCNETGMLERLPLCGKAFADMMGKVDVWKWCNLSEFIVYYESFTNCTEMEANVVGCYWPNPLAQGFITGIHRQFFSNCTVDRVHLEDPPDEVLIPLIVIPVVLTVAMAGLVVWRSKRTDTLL


Target: T1, human amylin receptor (AMY3) on …
Test: cell-based or functional assay

Binder | EC50/nM, CRE-luciferase reporter in amylin receptor/CRE-luc CHO cells [nM] | Relative activity (the EC50 ratio of Cagrilintide to the compound) [%]
{C20 diacid-γGlu}-ASQLSTAATQRLADFLRHSSTNLKPILPPTNVGSNT[Hyp]-NH2 (SMILES CC[C@H](C)[C@H](NC(=O)[C@@H]1CCCN1C(=O)[C@H](CCCCN)NC(=O)[C@H](CC(C)C)NC(=O)[C@H](CC(N)=O)NC(=O)[C@@H](NC(=O)[C@H](CO)NC(=O)[C@H](CO)NC(=O)[C@H](Cc1c[nH]cn1)NC(=O)[C@H](CCCNC(=N)N)NC(=O)[C@H](CC(C)C)NC(=O)[C@H](Cc1ccccc1)NC(=O)[C@H](CC(=O)O)NC(=O)[C@H](C)NC(=O)[C@H](CC(C)C)NC(=O)[C@H](CCCNC(=N)N)NC(=O)[C@H](CCC(N)=O)NC(=O)[C@@H](NC(=O)[C@H](C)NC(=O)[C@H](C)NC(=O)[C@@H](NC(=O)[C@H](CO)NC(=O)[C@H](CC(C)C)NC(=O)[C@H](CCC(N)=O)NC(=O)[C@H](CO)NC(=O)[C@H](C)NC(=O)CC[C@H](NC(=O)CCCCCCCCCCCCCCCCCCC(=O)O)C(=O)O)[C@@H](C)O)[C@@H](C)O)[C@@H](C)O)C(=O)N[C@@H](CC(C)C)C(=O)N1CCC[C@H]1C(=O)N1CCC[C@H]1C(=O)N[C@H](C(=O)N[C@@H](CC(N)=O)C(=O)N[C@H](C(=O)NCC(=O)N[C@@H](CO)C(=O)N[C@@H](CC(N)=O)C(=O)N[C@H](C(=O)N1C[C@H](O)C[C@H]1C(N)=O)[C@@H](C)O)C(C)C)[C@@H](C)O) [polypeptide derivative M49] | 0.08 | 163
{C20 diacid-γGlu}-ASQLSTAATQRLADFLRHSSANLKPILPPTNVGSNT[Hyp]-NH2 (SMILES CC[C@H](C)[C@H](NC(=O)[C@@H]1CCCN1C(=O)[C@H](CCCCN)NC(=O)[C@H](CC(C)C)NC(=O)[C@H](CC(N)=O)NC(=O)[C@H](C)NC(=O)[C@H](CO)NC(=O)[C@H](CO)NC(=O)[C@H](Cc1c[nH]cn1)NC(=O)[C@H](CCCNC(=N)N)NC(=O)[C@H](CC(C)C)NC(=O)[C@H](Cc1ccccc1)NC(=O)[C@H](CC(=O)O)NC(=O)[C@H](C)NC(=O)[C@H](CC(C)C)NC(=O)[C@H](CCCNC(=N)N)NC(=O)[C@H](CCC(N)=O)NC(=O)[C@@H](NC(=O)[C@H](C)NC(=O)[C@H](C)NC(=O)[C@@H](NC(=O)[C@H](CO)NC(=O)[C@H](CC(C)C)NC(=O)[C@H](CCC(N)=O)NC(=O)[C@H](CO)NC(=O)[C@H](C)NC(=O)CC[C@H](NC(=O)CCCCCCCCCCCCCCCCCCC(=O)O)C(=O)O)[C@@H](C)O)[C@@H](C)O)C(=O)N[C@@H](CC(C)C)C(=O)N1CCC[C@H]1C(=O)N1CCC[C@H]1C(=O)N[C@H](C(=O)N[C@@H](CC(N)=O)C(=O)N[C@H](C(=O)NCC(=O)N[C@@H](CO)C(=O)N[C@@H](CC(N)=O)C(=O)N[C@H](C(=O)N1C[C@H](O)C[C@H]1C(N)=O)[C@@H](C)O)C(C)C)[C@@H](C)O) [polypeptide derivative M50] | 0.07 | 186
